Experimental data taken from US12359240B2, “Membrane protease-based methods for detection of bacteria” (Nanyang Technological University, priority 2019, dated 2025).
Where no end group is shown, it is not given here.

Assays:
OmpT [1] = target: T1, OmpT (Escherichia coli, UniProt P09169); conditions: for rate of reduction in PT6 fluorescence (cleavage by OmpT) relative to the peptide of Examples 1-5: interpreted from the slope
E. coli K12 = assay: Detection of E. coli in contaminated water with the LL37 peptides and PT6; type: cell-based, Escherichia coli; conditions: 10^8 CFU/mL E. coli K12, FIG. 14A
OmpT and PgtE = assay: Substrate preference of OmpT versus PgtE, change in PT6 fluorescence with time; type: biochemical, E. coli K-12; Salmonella typhi; conditions: FIG. 15
OmpT [2] = target: T1, OmpT
Protocol: This OmpT was obtained by overexpressing the protein in E. coli BL21 as inclusion bodies using a protocol reported earlier [Kramer, R. A. Zandwijken, D. Egmond, M. R. Dekker, N. Eur. J. Biochem. 267, 885-893 (2000)]. Briefly, the inclusion bodies were unfolded and solubilized using 8 M urea and subsequently refolded in the presence of DodMe2NPrSO3, a zwitterionic detergent. The refolded OmpT was purified and stored at 4° C. for further use. […] To this 100 μL reaction mixture, 10 μL of PTAA stock solution (0.1 mg/mL) was added. Fluorescence measurements and absorbance scans were collected as mentioned before. The raw fluorescence (F.) intensity scans are either plotted as is or reported as % fluorescence increase. The following formula was applied to convert fluorescence intensity (a.u.) to % fluorescence increase: […]

OmpT [3] = target: T1, OmpT; remark: listed apart in the source
OmpT [4] = target: T1, OmpT; conditions: 20 μM peptide, OmpT 6 hours, FIG. 17
[5] = PTAA-peptide fluorescence and optical absorption measurements (no enzyme); conditions: 550 nm; peptide's highest concentration
Protocol: All PTAA and LL37FRRY mixing were carried out in the reaction buffer. All optical absorption and fluorescence measurements were carried out on 100 μL samples in a flat bottom 96 well plate using a TECAN Infinite® 200 PRO(Switzerland). Optical absorption measurements were collected from 330-650 nm. […] To understand the effect of intact and cleaved fragments on the fluorescence intensity and optical absorption of PTAA, LL37FRRV, frag1LL37FRRV (SEQ ID NO: 47) and frag2LL37FRRV (SEQ ID NO: 48) were added in different ratios (10:0, 8:2, 6:4, 4:6, 2:8, 0:10) while keeping the total peptide concentration at 50 μM. The fluorescence intensity and optical absorption spectra were measured as mentioned before.

[6] = PT6-peptide fluorescence measurements (no enzyme); conditions: FIG. 18
Protocol: Stock solutions of PT6 was prepared in a reaction buffer such that the absorbance at λmax was ˜1.4. All absorbance and fluorescence measurements were carried out on 100 μL samples in a flat bottom 96 well plate using a TECAN Infinite® 200 PRO (Switzerland). Fluorescence scans were collected by exciting the samples at 495 nm, further recording their emission spectrum from 525-750 nm. […] In order to study the effect of cysteine on PT6 fluorescence, different concentrations (150-6.25 μM) of the two peptides (Table 12) were prepared from the stock and mixed with PT6 such that the final concentration of the PT is a 10 time dilution of the stock. The fluorescence intensities were measured as described above.

T1 sequence (P09169 21-317): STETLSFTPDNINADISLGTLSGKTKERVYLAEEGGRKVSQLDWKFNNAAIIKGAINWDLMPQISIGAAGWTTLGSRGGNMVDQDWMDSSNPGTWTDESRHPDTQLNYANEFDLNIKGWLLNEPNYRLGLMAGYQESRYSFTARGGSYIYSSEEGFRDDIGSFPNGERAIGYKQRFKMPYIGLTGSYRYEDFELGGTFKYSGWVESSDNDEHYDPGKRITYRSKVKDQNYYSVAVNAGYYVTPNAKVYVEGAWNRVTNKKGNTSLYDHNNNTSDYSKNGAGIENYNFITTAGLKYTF

Substance: C L L G D F Y R R A K E K I G (CLLGDFYRRAKEKIG; LL37YRRA)
- rate of reduction in PT6 fluorescence (cleavage by OmpT) relative to the peptide of Examples 1-5 (OmpT [1]): faster rate
- rate of reduction in PT6 fluorescence (E. coli K12): faster rate

Substance: C L L G D F A R R A K E K I G (CLLGDFARRAKEKIG; LL37ARRA)
- substrate preference of OmpT compared with PgtE (OmpT and PgtE): OmpT exhibits a higher preference

Substance: C L L G D F F R R V K E K I G (CLLGDFFRRVKEKIG; LL37FRRV)
- increase in PTAA fluorescence intensity when mixed with OmpT-cleaved peptide fragments (OmpT [2]; peptide treated with OmpT in detergent micelles): no more than 20%
- times better then original peptide (substrate specific for OmpT) (OmpT [3]; SAMDI-MS peptide array, versus original peptide): 400 times

Substance: C L L G D F F R R Y K E K I G (CLLGDFFRRYKEKIG; LL37FRRY)
- difference in PTAA fluorescence intensity between intact peptide and peptide digested with OmpT (OmpT [4]): largest difference
- overall increase in PTAA's fluorescence intensity upon peptide addition [5]: ~200%
- incubation time with OmpT of the sample showing colour change from bronze to purple (OmpT [1]; PT6, normal visible light, FIG. 13B top): 70 min
- rate of reduction in PT6 fluorescence (cleavage by OmpT) relative to the peptide of Examples 1-5 (OmpT [1]): faster rate
- PTAA's fluorescence intensity less than with peptide in the absence of OmpT (OmpT [2]; 42 nM OmpT, 2 hours, 50 μM peptide): ~175%
- PT6 fluorescence intensity, peptide with versus without terminal cysteine [6]: much higher fluorescence intensity
- rate of reduction in PT6 fluorescence (E. coli K12): faster rate

Substance: C L L G D F F R R A K E K I G (CLLGDFFRRAKEKIG; LL37FRRA)
- rate of reduction in PT6 fluorescence (cleavage by OmpT) relative to the peptide of Examples 1-5 (OmpT [1]): faster rate
- rate of reduction in PT6 fluorescence (E. coli K12): faster rate

Substance: FRRV: library peptide of type AcGX1RRX2GC carrying the tetrapeptide sequence FRRV at the cleavage site (Ac-GFRRVGC)
- cleavage by OmpT of library peptide AcGX1RRX2GC (OmpT [3]; tetrapeptide sequence at the cleavage site): efficiently cleaved
